Reference: US20240301385, “DNA MODIFYING ENZYMES AND ACTIVE FRAGMENTS AND VARIANTS THEREOF AND METHODS OF USE” (LIFEEDIT THERAPEUTICS, INC., published 2024)

Biological target: T1, APG30126-L32-nAPG07433.1 (synthetic)
T1 chain: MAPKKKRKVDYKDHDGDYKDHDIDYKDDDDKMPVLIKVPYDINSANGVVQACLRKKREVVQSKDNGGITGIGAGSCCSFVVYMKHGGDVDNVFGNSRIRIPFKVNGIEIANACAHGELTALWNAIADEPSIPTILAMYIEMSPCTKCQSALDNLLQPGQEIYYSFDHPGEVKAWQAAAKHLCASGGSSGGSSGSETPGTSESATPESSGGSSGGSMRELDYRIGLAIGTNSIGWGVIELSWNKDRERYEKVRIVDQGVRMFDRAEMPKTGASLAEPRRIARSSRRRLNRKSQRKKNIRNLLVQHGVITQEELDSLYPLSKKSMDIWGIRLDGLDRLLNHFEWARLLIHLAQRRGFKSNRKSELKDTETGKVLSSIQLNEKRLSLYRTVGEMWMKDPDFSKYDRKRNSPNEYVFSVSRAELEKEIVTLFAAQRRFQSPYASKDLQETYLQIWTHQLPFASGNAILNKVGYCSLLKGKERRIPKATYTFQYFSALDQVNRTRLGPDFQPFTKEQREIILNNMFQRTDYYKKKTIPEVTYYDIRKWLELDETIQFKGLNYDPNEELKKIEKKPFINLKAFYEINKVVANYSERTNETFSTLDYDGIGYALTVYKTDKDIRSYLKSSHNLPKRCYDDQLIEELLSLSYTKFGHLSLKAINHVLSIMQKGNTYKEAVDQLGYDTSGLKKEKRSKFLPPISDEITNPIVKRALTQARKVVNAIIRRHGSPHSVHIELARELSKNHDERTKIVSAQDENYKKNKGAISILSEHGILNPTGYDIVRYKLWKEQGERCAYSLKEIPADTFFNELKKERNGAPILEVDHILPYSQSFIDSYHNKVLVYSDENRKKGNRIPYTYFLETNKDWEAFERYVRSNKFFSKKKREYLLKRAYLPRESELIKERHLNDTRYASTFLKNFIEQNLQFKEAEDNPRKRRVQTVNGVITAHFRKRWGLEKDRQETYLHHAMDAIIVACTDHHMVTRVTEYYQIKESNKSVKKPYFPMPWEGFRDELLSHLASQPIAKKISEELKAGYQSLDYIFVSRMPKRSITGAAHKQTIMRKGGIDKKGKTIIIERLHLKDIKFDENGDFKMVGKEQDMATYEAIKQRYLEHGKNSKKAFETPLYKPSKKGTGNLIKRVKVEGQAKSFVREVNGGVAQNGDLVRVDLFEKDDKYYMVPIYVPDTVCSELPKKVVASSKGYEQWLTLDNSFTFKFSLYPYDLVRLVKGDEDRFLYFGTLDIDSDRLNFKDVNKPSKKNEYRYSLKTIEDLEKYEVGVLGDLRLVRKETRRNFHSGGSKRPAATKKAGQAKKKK
Test: cell_activity; HEK293FT; PAM SEQ 152
Settings: tags: SV40 NLS, 3xFLAG N-term; nucleoplasmin NLS C-term
Summary of the method: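 Editing read out by next-generation sequencing (MiSeq 2×250) of PCR amplicons spanning the target site, analysed for INDELs or % cytosine conversion per position (position 1 nearest PAM).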

B1: SGN000930 sgRNA ; SGN000930 target (ssRNA ; dsDNA)
RNA: GAACAACUCAAAUGGAAAUGAAUAUGUCAUAGUUCCAUGAAAGCCAAAAGUGGCUUUGAUGUUUCUAUGAUAAGGGUUUCGGCCCGUGGCGUCGGGGAUCGCCUGCCCAUUCCGAUGGGCUUCUCCCCAUUUAUU
DNA 1: GAACAACTCAAATGGAAATGAATAT
DNA 2: ATATTCATTTCCATTTGAGTTGTTC
Binder B1 has an activity of 1.38 % mutated reads.
